Test results published in patent US20260209301A1 (LIFEARC, published 2026).
No end group written: not given here.

Assays:
Assay in all cases: cell-based or functional assay
human GalR2 = molecular target: T1, human GalR2 (human, UniProt O43603 1-387)
T1 sequence (looked up): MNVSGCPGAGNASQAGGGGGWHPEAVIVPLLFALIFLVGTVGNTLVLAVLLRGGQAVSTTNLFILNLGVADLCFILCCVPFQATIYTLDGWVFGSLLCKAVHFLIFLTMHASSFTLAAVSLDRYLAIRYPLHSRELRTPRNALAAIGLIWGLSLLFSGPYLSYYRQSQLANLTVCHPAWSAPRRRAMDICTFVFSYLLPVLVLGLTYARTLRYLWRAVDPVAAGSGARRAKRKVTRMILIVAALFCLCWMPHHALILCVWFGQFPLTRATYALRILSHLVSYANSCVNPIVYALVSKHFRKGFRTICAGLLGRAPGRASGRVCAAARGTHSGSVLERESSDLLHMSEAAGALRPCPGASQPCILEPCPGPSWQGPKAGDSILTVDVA

human GalR1 = molecular target: T2, human GalR1 (human, UniProt P47211 1-349)
T2 sequence (looked up): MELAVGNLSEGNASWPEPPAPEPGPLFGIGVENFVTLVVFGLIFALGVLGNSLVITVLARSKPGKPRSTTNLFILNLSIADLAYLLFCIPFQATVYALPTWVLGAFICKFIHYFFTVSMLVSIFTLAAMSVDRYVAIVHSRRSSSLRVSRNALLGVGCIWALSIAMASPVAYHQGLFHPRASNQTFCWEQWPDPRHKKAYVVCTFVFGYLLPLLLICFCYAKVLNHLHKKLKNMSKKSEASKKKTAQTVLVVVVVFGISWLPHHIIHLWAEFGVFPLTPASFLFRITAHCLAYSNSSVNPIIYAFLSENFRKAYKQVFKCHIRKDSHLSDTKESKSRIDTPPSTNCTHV

mouse GalR2 = molecular target: T3, mouse GalR2 (Mus musculus, UniProt O88854 1-371)
T3 sequence (looked up): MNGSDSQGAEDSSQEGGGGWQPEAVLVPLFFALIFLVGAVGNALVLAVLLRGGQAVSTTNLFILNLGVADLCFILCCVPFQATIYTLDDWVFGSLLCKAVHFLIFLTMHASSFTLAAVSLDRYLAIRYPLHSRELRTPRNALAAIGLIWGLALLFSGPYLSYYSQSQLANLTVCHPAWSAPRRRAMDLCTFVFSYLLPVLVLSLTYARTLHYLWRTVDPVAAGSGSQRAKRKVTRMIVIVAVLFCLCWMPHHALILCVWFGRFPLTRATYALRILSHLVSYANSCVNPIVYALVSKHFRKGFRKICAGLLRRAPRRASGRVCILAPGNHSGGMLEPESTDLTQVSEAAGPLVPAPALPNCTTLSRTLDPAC

rat GalR2 = molecular target: T4, rat GalR2 (Rattus rattus, UniProt O08726 1-372)
T4 sequence (looked up): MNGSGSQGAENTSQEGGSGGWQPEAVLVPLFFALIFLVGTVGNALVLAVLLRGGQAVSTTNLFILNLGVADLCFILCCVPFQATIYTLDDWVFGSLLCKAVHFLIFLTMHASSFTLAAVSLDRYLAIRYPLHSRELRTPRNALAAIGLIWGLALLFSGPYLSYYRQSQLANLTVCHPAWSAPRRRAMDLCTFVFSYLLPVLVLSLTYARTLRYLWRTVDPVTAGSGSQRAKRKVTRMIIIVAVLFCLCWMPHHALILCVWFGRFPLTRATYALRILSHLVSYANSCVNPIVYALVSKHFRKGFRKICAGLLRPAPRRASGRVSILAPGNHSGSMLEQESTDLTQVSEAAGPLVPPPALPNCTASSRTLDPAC

cynomolgus GalR2 = molecular target: T5, cynomolgus GalR2 (Macaca fascicularis, UniProt A0A2K5WWW1 1-386)
T5 sequence: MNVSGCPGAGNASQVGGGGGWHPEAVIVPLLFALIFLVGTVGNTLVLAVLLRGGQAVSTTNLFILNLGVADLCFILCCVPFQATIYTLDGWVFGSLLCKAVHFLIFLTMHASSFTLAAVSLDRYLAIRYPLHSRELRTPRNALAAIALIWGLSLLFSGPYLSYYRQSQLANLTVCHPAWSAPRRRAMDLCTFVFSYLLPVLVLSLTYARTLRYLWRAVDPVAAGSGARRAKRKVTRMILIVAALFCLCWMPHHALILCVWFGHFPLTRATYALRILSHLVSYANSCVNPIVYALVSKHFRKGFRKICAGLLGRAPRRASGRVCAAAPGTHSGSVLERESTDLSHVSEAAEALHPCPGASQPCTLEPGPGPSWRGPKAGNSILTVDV

GWTLNSAGYLLGPQPPGFSPFR [M617]
Beta Arrestin pEC50 (human GalR2): 8.4 pEC50
Calcium pEC50 (human GalR2): 9.6 pEC50
Beta Arrestin IA (%) (human GalR1): 99%
Beta Arrestin pEC50 (human GalR1): 8.68 pEC50
cAMP IA (%) (human GalR1): 90.1%
cAMP pEC50 (human GalR1): 10 pEC50

WTLNSAGYLL [Galanin 2-11]
Beta Arrestin pEC50 (human GalR2): 6.4 pEC50
Calcium pEC50 (human GalR2): 7.6 pEC50

WTLNSAGYLLGPHAIDNHRSFHDKYGLA [Galanin 2-29 (rat)]
Beta Arrestin pEC50 (human GalR2): 8.1 pEC50
Calcium pEC50 (human GalR2): 9.2 pEC50
Beta Arrestin IA (%) (human GalR1): 67.2%
Beta Arrestin pEC50 (human GalR1): 8.09 pEC50
cAMP IA (%) (human GalR1): 90.8%
cAMP pEC50 (human GalR1): 8.6 pEC50

GWTLNSAGYLLGPHAVGNHRSFSDKNGLTS [Galanin 1-30 (human)]
calcium assay activity (quantity not given) (mouse GalR2): 9
calcium assay activity (quantity not given) (rat GalR2): 8.8
calcium assay activity (quantity not given) (cynomolgus GalR2): 9.6

WTLNSAGYLLGPKKKKK (also: PEG (dPEG24) on one lysine, site not given here) [Nax409-9]
Beta Arrestin pEC50 (human GalR2): 5.8 pEC50
Calcium pEC50 (human GalR2): 6.9 pEC50
Beta Arrestin IA (%) (human GalR1): 7%
cAMP IA (%) (human GalR1): 66%
cAMP pEC50 (human GalR1): 6.5 pEC50

RGRGNWTLNSAGYLLGPVLPPPALALA [M1145]
Beta Arrestin pEC50 (human GalR2): 7.9 pEC50
Calcium pEC50 (human GalR2): 8.9 pEC50
Beta Arrestin IA (%) (human GalR1): 24.5%
cAMP IA (%) (human GalR1): 86.7%
cAMP pEC50 (human GalR1): 6.8 pEC50

GWTLNSAGYLLGPHA [Galanin 1-15]
Beta Arrestin pEC50 (human GalR2): 7.2 pEC50
Calcium pEC50 (human GalR2): 8.6 pEC50
